# Positions of bridges follow the written chain, without caps; N, C: chain ends. Non-standard residues stand in square brackets, D forms with d. Residues, ends and D or L forms follow the SMILES beside them. Primed or numbered codes have the meaning given here. *: point of attachment. Cypate = CC1(C)C(/C=C/C=C/C=C/C=C2/N(CCC(=O)*)c3ccc4ccccc4c3C2(C)C)=[N+](CCC(=O)O)c2ccc3ccccc3c21; Cypate′ = not defined here
# Experiments:
# [1] = in vivo
# Excerpt: While this is not a problem in the proposed laparoscopy, the excretion route to the kidneys can be altered by conjugating positively charged moieties (—^+NMe3) or nonionic groups (e.g. PEG) to the free carboxylic acid group of cypate. […] In the unlikely event that the cyanine dyes are photo-unstable, they will be replaced with NIR pyrrolopyrrole cyanine dyes (PPCy), which are highly photostable and have exceptionally high fluorescence quantum yields (up to 80%).
# albumin [2] = biological target: T1, albumin (Homo sapiens, UniProt P02768); experiment: binding of carbocyanine dyes and LS838 to albumin (binding constant K)
# Excerpt: The hypothesis is that the binding of cypate to albumin facilitates the internalization of LS838 in PDAC/PanIN lesions. In a previous study, the binding of some carbocyanine dyes to albumin was compared. […] It was also shown that conjugation of peptides to the dyes decreases the K by a factor of ˜10. Using the same method, we determined the K value of LS838 to be 86,000 M^−1.
# pancreas tumor cells = details: in vivo
# PDAC [3] = test system: PDAC; set-up: species or system mice; details: mouse, in vivo
# Excerpt: To overcome this problem, the use of peptides as a tumor-trapping mechanism was explored. The highly reducing environment of tumor cells is known to reduce disulfide bonds to thiols, which can trans-thiolate with cysteine-containing intracellular proteins to trap the molecular probe. Therefore, a variety of disulfide-containing peptides were conjugated to cypate and the compounds were screened in mice with advanced stage PDAC. […] Replacement of the D-Cysteine with the natural L-Cysteine residue abrogates this retention.
# PDAC [4] = experiment: in vivo uptake/contrast in PDAC relative to uninvolved pancreas
# Excerpt: A similar trend is observed in vivo, where preferential uptake in PDAC relative to uninvolved pancreas is […]. […] Permutation of the arginine-aspartic acid sequence results in a loss of PDAC-selective uptake. It has been shown that cypate binds to the hydrophobic pockets of albumin, irrespective of the source (human, murine, or bovine). […] Thus, the primary goal of this study is to determine the role of the peptide in tumor cell internalization or retention. Based on preliminary data, this question can be addressed by preparing the following cypate-labeled peptides (underlined amino acids are changes made to LS838): […]
# albumin [5] = biological target: T1, albumin; details: carbocyanine dyes, previous study; cited from earlier work
# tumor cells = experiment: NIR fluorescence microscopy of uptake and trafficking in cells; type: cell-based; details: dye alone
# Description: FIG. 8A and FIG. 8B depict uptake of LS838 in 4T1 luc cells showing internalization of the probe in the cells at 1 h (FIG. 8A) and 4 h (FIG. 8B) post incubation. Most cells show localization in the lysosomes at early time points, but the punctate fluorescence became more diffuse at 24 h, indicating translocation to the cytosol. Uptake in the mitochondria was negligible. Color scheme: cyan, Mitotracker; green, lysotracker; and red, LS838. (FIG. 8C) Internalization of LS838 in cells was inhibited by Filipinin, an inhibitor of albumin endocytosis via the gp60 pathway. A similar inhibition was observed when Alexa-680 dye labeled albumin (BSA; blue) was mixed with LS838.
# At early time points, LS838 is largely in the lysosomes, but it translocates to the cytosol in a time-dependent manner. […]
# Aggresomes are microtubule-catalyzed aggregates of […] that are used to degrade particularly stable and aggregated proteins. […] It will be evaluated if tumors have a lower ability to form aggresomes because of microtubule dysfunction, leading to prolonged retention in tumor cells compared to normal cells. If LS838 induces aggresome formation in tumor cells, but not fibroblasts will first be determined. […] It will also be determined if aggresomes form in vivo using a literature method. […] Aggresome formation will be determined by staining muscle, skin, and tumors for anti-ubiquitin protein. […]
# 4T1 luc = experiment: in vivo tumor targeting / fluorescence imaging of probes compared with LS301; set-up: species or system Balb/c; details: Tyr adjacent to the cypate
# Description: FIG. 5 depicts images showing LS838 for fluorescence and nuclear (PET and or SPECT) imaging. 4T1 luc in Balb/c; 100 μl of 50 μM LS838.
# FIG. 6 depicts the distribution of LS838 in tissue at 24 hours.
# A variety of probes which have similar sequence compared to LS301 were designed and prepared (Table 1). The probes have different peptide sequences, D-, L-amino acid variations or different groups on C-terminus. The sequences of the probes were tested by LC-MS and the spectroscopy properties were recorded. The performances of the tumor targeting abilities were also tested in vivo. […] It was unexpected that LS838 would be brighter relative to LS301 and it is unknown to us why it does. However, the enhanced brightness allows the use of smaller amounts of material to achieve the same uptake kinetics and accumulation as LS301. FIG. 5 depicts the accumulation of LS838 in vivo and FIG. 6 graphically quantifies the intensity of LS838 in various organs. […] LS838 labeled can be labeled with radionuclides such as radio-iodine, bromine, or fluorine for combined optical and nuclear imaging.
# T1 sequence (P02768 25-609, species assumed): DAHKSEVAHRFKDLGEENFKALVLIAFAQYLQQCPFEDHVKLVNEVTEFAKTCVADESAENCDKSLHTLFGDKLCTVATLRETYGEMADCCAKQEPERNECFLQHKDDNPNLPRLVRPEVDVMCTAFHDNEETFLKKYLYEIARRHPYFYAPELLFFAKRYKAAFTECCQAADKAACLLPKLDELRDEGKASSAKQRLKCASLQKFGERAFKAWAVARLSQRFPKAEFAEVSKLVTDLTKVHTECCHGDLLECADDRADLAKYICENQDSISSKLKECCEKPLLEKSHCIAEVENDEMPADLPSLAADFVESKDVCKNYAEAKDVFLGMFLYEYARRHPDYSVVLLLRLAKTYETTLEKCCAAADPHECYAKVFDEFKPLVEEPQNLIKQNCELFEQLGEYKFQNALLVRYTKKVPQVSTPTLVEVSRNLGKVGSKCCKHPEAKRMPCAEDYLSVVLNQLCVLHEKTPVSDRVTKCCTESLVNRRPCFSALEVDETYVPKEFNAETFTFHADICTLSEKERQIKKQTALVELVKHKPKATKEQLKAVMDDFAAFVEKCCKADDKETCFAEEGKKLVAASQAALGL
molecule,measurement,setting,value
"CC1(C)C(/C=C/C=C/C=C/C=C2/N(CCC(=O)N[C@@H]3CSSC[C@@H](C(=O)N[C@@H](Cc4ccc(O)cc4)C(=O)O)NC(=O)[C@@H]4CCCN4C(=O)[C@H](CO)NC(=O)[C@H](CC(=O)O)NC(=O)[C@H](CCCNC(=N)N)NC(=O)CNC3=O)c3ccc4ccccc4c3C2(C)C)=[N+](CCC(=O)O)c2ccc3ccccc3c21 [LS838, Cypate-Cyclo(DCys-Gly-Arg-Asp-Ser-Pro-Cys)-Tyr-OH] (Cypate-[dC]GRDSPCY-OH; disulfide 1-7)",clearance route,[1],clears through the liver
same,Kd,albumin [2],11.6 µM
same,time remaining primarily in the tumor cells relative to non-tumor cells,pancreas tumor cells,up to 100 h
same,time to internalization in the pancreas,pancreas tumor cells,≤ 1 h
same,selective retention in tumors (duration),PDAC [3],over 48 h
CC1(C)C(/C=C/C=C/C=C/C=C2/N(CCC(=O)O)c3ccc4ccccc4c3C2(C)C)=[N+](CCC(=O)[O-])c2ccc3ccccc3c21 [cypate],preferential uptake in PDAC relative to uninvolved pancreas,PDAC [4],not observed
same,binding constant (K) to albumin,albumin [5],"556,000 M^−1"
same,efflux from tumor cells after transfer to new culture medium,tumor cells,rapidly effluxes
"CC1(C)C(/C=C/C=C/C=C/C=C2/N(CCC(=O)N[C@@H](Cc3ccc(O)cc3)C(=O)N[C@@H]3CSSC[C@@H](C(=O)N[C@@H](CCCCN)C(=O)O)NC(=O)[C@@H]4CCCN4C(=O)[C@H](CO)NC(=O)[C@H](CC(=O)O)NC(=O)[C@H](CCCNC(=N)N)NC(=O)CNC3=O)c3ccc4ccccc4c3C2(C)C)=[N+](CCC(=O)O)c2ccc3ccccc3c21 [LS747, Cypate-Tyr-Cyclo(DCys-Gly-Arg-Asp-Ser-Pro-Cys)-Lys-OH] (Cypate-Y[dC]GRDSPCK-OH; disulfide 2-8)",retention in tumors after in vivo administration,4T1 luc,rapid loss of retention in tumors
"CC1(C)C(/C=C/C=C/C=C/C=C2\N(CCCCS(=O)(=O)O)c3ccc4ccccc4c3C2(C)C)=[N+](CCCCS(=O)(=O)[O-])c2ccc3ccccc3c21 [ICG, indocyanine green]",binding constant (K) to albumin,albumin [5],"554,000 M^−1"
Tyr-Cypate-Cyclo(DCys-Gly-Arg-Asp-Ser-Pro-Cys)-Lys-NH2 ({Tyr-Cypate′}-[dC]GRDSPCK-NH2; disulfide 1-7 (inferred)) [LS758],retention in tumors after in vivo administration,4T1 luc,rapid loss of retention in tumors
